The source of these data is article PMC11066007, “CORVET-specific subunit levels determine the balance between HOPS/CORVET endosomal tethering complexes” (Scientific Reports, 2024).

The target of assay [1] is T1, Tgfbrap1-FLAG (human, UniProt Q8WUH2 1-860).
T1 construct: Tgfbrap1, human, CORVET-specific subunit; DNA region encoding the full-length protein fused with a FLAG tag; also called CORVET-specific Tgfbrap1; not shown: FLAG, C-terminal, kept
T1 sequence (looked up): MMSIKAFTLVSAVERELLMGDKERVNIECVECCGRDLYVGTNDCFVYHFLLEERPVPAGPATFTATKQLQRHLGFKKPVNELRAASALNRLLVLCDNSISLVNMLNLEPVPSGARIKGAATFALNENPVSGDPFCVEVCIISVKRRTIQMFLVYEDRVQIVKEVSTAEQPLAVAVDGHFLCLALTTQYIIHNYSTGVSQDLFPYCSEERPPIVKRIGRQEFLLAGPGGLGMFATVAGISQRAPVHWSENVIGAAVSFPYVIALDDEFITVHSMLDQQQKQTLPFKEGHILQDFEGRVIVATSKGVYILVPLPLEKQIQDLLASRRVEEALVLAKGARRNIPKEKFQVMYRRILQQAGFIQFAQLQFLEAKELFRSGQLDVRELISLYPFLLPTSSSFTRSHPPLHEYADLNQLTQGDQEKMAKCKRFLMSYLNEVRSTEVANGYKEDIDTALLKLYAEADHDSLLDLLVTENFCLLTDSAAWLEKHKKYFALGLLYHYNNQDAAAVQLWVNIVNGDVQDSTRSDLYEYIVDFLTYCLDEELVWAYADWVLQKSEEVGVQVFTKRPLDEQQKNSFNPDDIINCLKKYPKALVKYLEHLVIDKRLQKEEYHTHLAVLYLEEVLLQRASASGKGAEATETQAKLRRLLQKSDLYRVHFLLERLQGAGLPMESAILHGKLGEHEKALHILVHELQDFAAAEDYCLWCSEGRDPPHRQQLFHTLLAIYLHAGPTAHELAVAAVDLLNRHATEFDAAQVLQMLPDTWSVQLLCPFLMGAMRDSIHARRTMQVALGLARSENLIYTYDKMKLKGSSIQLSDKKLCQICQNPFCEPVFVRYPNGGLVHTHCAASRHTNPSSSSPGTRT
The experiment in a line: co-IP; anti-FLAG beads on total lysates of HEK293 cells stably transfected with a FLAG-tagged specific subunit, with or without transient overexpression of the counterpart subunit (control: pCMV); endogenous VPS11 and VPS18 detected by western blot, densitometry with ImageJ; lysis buffer 50 mM TRIS-HCl pH 7.5, 150 mM NaCl, 1% Triton X-100, 5 mM EDTA; 1.5 h at 4 °C. To be noted: partners not purified.

Assay [2] deals with T2, VPS41-FLAG (human, UniProt P49754 1-854).
T2 construct: VPS41, human, HOPS-specific subunit; DNA region encoding the full-length protein fused with a FLAG tag; The label puts FLAG after the name, but the methods say N-terminal tags were used for VPS41 and VPS39; also called HOPS-specific VPS41; source: HEK293, stably transfected (pCMV3), in lysate; not shown: FLAG, N-terminal, kept
T2 sequence (looked up): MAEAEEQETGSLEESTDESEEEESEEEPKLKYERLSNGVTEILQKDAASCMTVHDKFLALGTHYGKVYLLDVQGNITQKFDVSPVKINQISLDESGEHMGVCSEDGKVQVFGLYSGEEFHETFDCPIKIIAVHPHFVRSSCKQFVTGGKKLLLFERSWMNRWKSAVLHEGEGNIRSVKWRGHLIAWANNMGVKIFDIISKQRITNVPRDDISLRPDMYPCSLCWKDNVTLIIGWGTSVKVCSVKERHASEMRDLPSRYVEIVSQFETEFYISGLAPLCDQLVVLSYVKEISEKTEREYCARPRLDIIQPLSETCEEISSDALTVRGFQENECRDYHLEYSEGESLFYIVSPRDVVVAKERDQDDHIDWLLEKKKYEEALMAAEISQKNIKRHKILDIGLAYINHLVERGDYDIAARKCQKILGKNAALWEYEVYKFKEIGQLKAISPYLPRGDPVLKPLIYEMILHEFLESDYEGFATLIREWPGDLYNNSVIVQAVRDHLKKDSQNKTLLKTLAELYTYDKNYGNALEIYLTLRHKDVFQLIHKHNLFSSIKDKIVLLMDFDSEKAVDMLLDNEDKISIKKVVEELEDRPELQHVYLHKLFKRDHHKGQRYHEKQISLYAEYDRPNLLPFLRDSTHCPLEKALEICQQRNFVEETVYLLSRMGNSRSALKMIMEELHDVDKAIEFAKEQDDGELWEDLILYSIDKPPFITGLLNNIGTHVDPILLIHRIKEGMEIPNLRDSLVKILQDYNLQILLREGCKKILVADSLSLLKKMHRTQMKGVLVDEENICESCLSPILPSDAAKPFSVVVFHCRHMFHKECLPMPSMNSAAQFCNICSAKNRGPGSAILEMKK
The description is as above. The conditions noted are these: partners not purified.

B1: VPS11 (natural protein, human (endogenous in HEK293), UniProt Q9H270 1-941, looked up)
chain: MAAYLQWRRFVFFDKELVKEPLSNDGAAPGATPASGSAASKFLCLPPGITVCDSGRGSLVFGDMEGQIWFLPRSLQLTGFQAYKLRVTHLYQLKQHNILASVGEDEEGINPLVKIWNLEKRDGGNPLCTRIFPAIPGTEPTVVSCLTVHENLNFMAIGFTDGSVTLNKGDITRDRHSKTQILHKGNYPVTGLAFRQAGKTTHLFVVTTENVQSYIVSGKDYPRVELDTHGCGLRCSALSDPSQDLQFIVAGDECVYLYQPDERGPCFAFEGHKLIAHWFRGYLIIVSRDRKVSPKSEFTSRDSQSSDKQILNIYDLCNKFIAYSTVFEDVVDVLAEWGSLYVLTRDGRVHALQEKDTQTKLEMLFKKNLFEMAINLAKSQHLDSDGLAQIFMQYGDHLYSKGNHDGAVQQYIRTIGKLEPSYVIRKFLDAQRIHNLTAYLQTLHRQSLANADHTTLLLNCYTKLKDSSKLEEFIKKKSESEVHFDVETAIKVLRQAGYYSHALYLAENHAHHEWYLKIQLEDIKNYQEALRYIGKLPFEQAESNMKRYGKILMHHIPEQTTQLLKGLCTDYRPSLEGRSDREAPGCRANSEEFIPIFANNPRELKAFLEHMSEVQPDSPQGIYDTLLELRLQNWAHEKDPQVKEKLHAEAISLLKSGRFCDVFDKALVLCQMHDFQDGVLYLYEQGKLFQQIMHYHMQHEQYRQVISVCERHGEQDPSLWEQALSYFARKEEDCKEYVAAVLKHIENKNLMPPLLVVQTLAHNSTATLSVIRDYLVQKLQKQSQQIAQDELRVRRYREETTRIRQEIQELKASPKIFQKTKCSICNSALELPSVHFLCGHSFHQHCFESYSESDADCPTCLPENRKVMDMIRAQEQKRDLHDQFQHQLKCSNDSFSVIADYFGRGVFNKLTLLTDPPTARLTSSLEAGLQRDLLMHSRRGT
notes: VPS11, shared class C core subunit of HOPS and CORVET, detected by anti-VPS11 western blot in anti-FLAG precipitates; also called core subunit VPS11; source: endogenous, HEK293 lysate
In the case of B1, the “relative amount bound with Vps39-HA overexpressed (control cells HEK + pCMV as reference)” value in assay [1] was 1.05 relative to control cells. The “relative amount bound with VPS8 overexpressed (control cells HEK + pCMV as reference)” value in assay [2] is 0.31 relative to control cells.

B2: VPS18 (natural protein, human (endogenous in HEK293), UniProt Q9P253 1-973, looked up)
chain: MASILDEYENSLSRSAVLQPGCPSVGIPHSGYVNAQLEKEVPIFTKQRIDFTPSERITSLVVSSNQLCMSLGKDTLLRIDLGKANEPNHVELGRKDDAKVHKMFLDHTGSHLLIALSSTEVLYVNRNGQKVRPLARWKGQLVESVGWNKALGTESSTGPILVGTAQGHIFEAELSASEGGLFGPAPDLYFRPLYVLNEEGGPAPVCSLEAERGPDGRSFVIATTRQRLFQFIGRAAEGAEAQGFSGLFAAYTDHPPPFREFPSNLGYSELAFYTPKLRSAPRAFAWMMGDGVLYGALDCGRPDSLLSEERVWEYPEGVGPGASPPLAIVLTQFHFLLLLADRVEAVCTLTGQVVLRDHFLEKFGPLKHMVKDSSTGQLWAYTERAVFRYHVQREARDVWRTYLDMNRFDLAKEYCRERPDCLDTVLAREADFCFRQRRYLESARCYALTQSYFEEIALKFLEARQEEALAEFLQRKLASLKPAERTQATLLTTWLTELYLSRLGALQGDPEALTLYRETKECFRTFLSSPRHKEWLFASRASIHELLASHGDTEHMVYFAVIMQDYERVVAYHCQHEAYEEALAVLARHRDPQLFYKFSPILIRHIPRQLVDAWIEMGSRLDARQLIPALVNYSQGGEVQQVSQAIRYMEFCVNVLGETEQAIHNYLLSLYARGRPDSLLAYLEQAGASPHRVHYDLKYALRLCAEHGHHRACVHVYKVLELYEEAVDLALQVDVDLAKQCADLPEEDEELRKKLWLKIARHVVQEEEDVQTAMACLASCPLLKIEDVLPFFPDFVTIDHFKEAICSSLKAYNHHIQELQREMEEATASAQRIRRDLQELRGRYGTVEPQDKCATCDFPLLNRPFYLFLCGHMFHADCLLQAVRPGLPAYKQARLEELQRKLGAAPPPAKGSARAKEAEGGAATAGPSREQLKADLDELVAAECVYCGELMIRSIDRPFIDPQRYEEEQLSWL
notes: VPS18, shared class C core subunit of HOPS and CORVET, detected by anti-VPS18 western blot in anti-FLAG precipitates; also called core subunit VPS18; source: endogenous, HEK293 lysate
Take B2: the “relative amount bound with Vps39-HA overexpressed (control cells HEK + pCMV as reference)” value in assay [1] was 1.31 relative to control cells. Further, the “relative amount bound with VPS8 overexpressed (control cells HEK + pCMV as reference)” value in assay [2] was 0.69 relative to control cells.
